How the values were obtained:
[1] = molecular target: NbUBC2-EGFP (Nicotiana benthamiana); experiment: FRET or BRET; FRET by acceptor photobleaching in epidermal cells of N. benthamiana leaves; EGFP/GFP fusion as donor, DsRed fusion as acceptor; FRET efficiency (EF) in percent; without ChiLCV
[2] = molecular target: NbHUB1-GFP (Nicotiana benthamiana); experiment: as above
[3] = molecular target: Rep-DsRed (Chilli leaf curl virus); experiment: FRET or BRET; FRET by acceptor photobleaching in epidermal cells of N. benthamiana leaves, in the presence of ChiLCV, Rep proteins organised as punctate bodies
[4] = molecular target: NbUBC2-DsRed (Nicotiana benthamiana); experiment: FRET or BRET; FRET by acceptor photobleaching in epidermal cells of N. benthamiana leaves; EGFP/GFP fusion as donor, DsRed fusion as acceptor; FRET efficiency (EF) in percent; without ChiLCV

For Rep_(1-120)-DsRed (domain or fragment), the FRET efficiency [1] was 38% and the FRET efficiency [2] was 45%.

In the case of Rep_(1-180)-DsRed (domain or fragment), the FRET efficiency [1] is reported as 40.5% and the FRET efficiency [2] is reported as 44%.

With “Rep_(181-361)-DsRed (domain or fragment)” the FRET efficiency [2] was 58.5%.

Rep-EGFP (natural protein) gave an FRET efficiency in the presence of ChiLCV [3] of 68.7% and an FRET efficiency [4] of 43.7%.

Rep-DsRed (natural protein) gave an FRET efficiency [2] of 58.7%.
